Data published in patent publication US20100272723A1 (Xencor, published 2010).

T1: human CD19 (human, UniProt P15391 20-556)
T1 construct: also called B-cell surface antigen B4; B-cell antigen CD19
T1 sequence: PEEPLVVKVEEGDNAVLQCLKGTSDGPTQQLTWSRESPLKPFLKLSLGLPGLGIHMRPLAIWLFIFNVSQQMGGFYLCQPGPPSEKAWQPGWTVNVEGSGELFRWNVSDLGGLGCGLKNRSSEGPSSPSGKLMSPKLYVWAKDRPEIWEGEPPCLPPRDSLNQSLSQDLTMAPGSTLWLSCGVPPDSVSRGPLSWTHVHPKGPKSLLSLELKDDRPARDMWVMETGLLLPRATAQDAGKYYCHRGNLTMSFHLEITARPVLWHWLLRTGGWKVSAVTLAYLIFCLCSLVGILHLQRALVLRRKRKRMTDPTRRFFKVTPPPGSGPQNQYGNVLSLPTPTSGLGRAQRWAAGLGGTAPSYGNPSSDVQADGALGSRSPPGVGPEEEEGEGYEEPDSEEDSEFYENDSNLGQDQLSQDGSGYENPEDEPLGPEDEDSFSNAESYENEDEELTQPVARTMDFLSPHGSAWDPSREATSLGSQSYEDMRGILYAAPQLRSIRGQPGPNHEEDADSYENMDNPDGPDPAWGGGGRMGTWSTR

T2: FcγRIIa - H131 (human, UniProt P12318)
T2 construct: soluble His-tagged receptor; also called H131 FcγRIIa (FcγR-His)
T2 sequence (receptor chain, looked up): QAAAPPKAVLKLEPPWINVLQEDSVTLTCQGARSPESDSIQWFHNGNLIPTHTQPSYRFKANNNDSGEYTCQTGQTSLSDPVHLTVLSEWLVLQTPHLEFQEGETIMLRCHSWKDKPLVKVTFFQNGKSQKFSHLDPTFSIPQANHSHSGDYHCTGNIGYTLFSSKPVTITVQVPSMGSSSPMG

T3: FcγRIIa - R131 (human, UniProt P12318)
T3 construct: soluble His-tagged receptor; also called R131 FcγRIIa (FcγR-His)
T3 sequence (receptor chain, looked up): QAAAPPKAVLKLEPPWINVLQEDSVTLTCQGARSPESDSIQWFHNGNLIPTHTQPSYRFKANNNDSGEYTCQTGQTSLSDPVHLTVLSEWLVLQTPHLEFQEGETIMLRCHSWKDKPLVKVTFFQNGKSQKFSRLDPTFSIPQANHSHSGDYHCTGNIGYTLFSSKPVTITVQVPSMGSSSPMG


What was measured:
human CD19 [1] = molecular target: T1, human CD19; assay: DELFIA competition on Raji cells: unlabeled antibody competes with Eu-labeled anti-CD19 for surface CD19 [upper panel]
human CD19 [2] = molecular target: T1, human CD19; assay: DELFIA competition on Raji cells: unlabeled antibody competes with Eu-labeled anti-CD19 for surface CD19 [lower panel]
[3] = molecular target: T4, human V158 FcγRIIIa (FcγR-His) (human, UniProt P08637 17-208, limits assumed); assay: Biacore SPR; IgG captured on protein A/G, FcγR-His injected; 1:1 model
T4 construct: Soluble His-tagged receptor injected as analyte in Biacore; not shown: His tag ('FcγR-His')
Procedure: (§1) Briefly, protein A/G was coupled to a flow cell of a CM5 chip. IgG was first diluted to 25 nM and immobilized to protein A/G channel to ˜1000 RUs. FcγR-His was serially diluted and injected at […] for 2 min followed by dissociation for 3 min. To determine KD the resulting sensorgrams are “group-fitted” using the 1:1 interaction model available in BlAevaluation software.

FcγRIIa - H131 = molecular target: T2, FcγRIIa - H131; assay: Biacore SPR: IgG captured on protein A/G (CM5 chip), FcγR-His injected; KD from 1:1 group fit, plotted as -log(KD)
Procedure: as §1

FcγRIIa - R131 = molecular target: T3, FcγRIIa - R131; assay: as above
Procedure: as §1

T4 sequence (P08637 17-208 F176V limits assumed): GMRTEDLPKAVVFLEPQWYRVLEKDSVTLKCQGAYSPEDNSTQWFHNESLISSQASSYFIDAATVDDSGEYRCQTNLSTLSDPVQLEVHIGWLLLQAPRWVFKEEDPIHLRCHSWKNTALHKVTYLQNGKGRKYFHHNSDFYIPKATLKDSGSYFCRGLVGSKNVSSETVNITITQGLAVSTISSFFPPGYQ

| IC50 (read off the curve) (human CD19 [2]) [nM] | IC50 (read off the curve) (human CD19 [1]) [nM] | Binder | also measured |
| --- | --- | --- | --- |
|  |  | H2L2 (antibody, V domains shown, also called 4G7 H2L2) VH: QVQLQESGSGLVKPGGSLRLSCAASGYTFTSYVMHWVRQAPGKGLEWMGYINPYNDGTKYNESLKSRVTISSDKSISTAYMELSSLRAEDTAVYYCARGTYYYGSRVFDYWGQGTLVTVSS VL: DIVMTQSPSSLSASVGDRVTISCRSSKSLLNSNGNTYLYWFQQKPGQSPQLLIYRMSNLASGVPDRFSGSGSGTEFTLTISSLQPEDVAVYYCMQHLEYPFTFGAGTKLEIK | binding result (human CD19 [1]): binds |
| ~8 | ~5 | H0L0 (antibody, original 4G7 variable regions; also called 4G7 H0L0) heavy chain: EVQLQQSGPELIKPGASVKMSCKASGYTFTSYVMHWVKQKPGQGLEWIGYINPYNDGTKYNEKFKGKATLTSDKSSSTAYMELSSLTSEDSAVYYCARGTYYYGSRVFDYWGQGTTLTVSS light chain: DIVMTQAAPSIPVTPGESVSISCRSSKSLLNSNGNTYLYWFLQRPGQSPQLLIYRMSNLASGVPDRFSGSGSGTAFTLRISRVEAEDVGVYYCMQHLEYPFTFGAGTKLELK |  |
| ~10 |  | H4L0 (antibody, V domains shown, also called 4G7 H4L0) VH: EVQLQQSGPEVKKPGTSVKVSCKASGYTFTSYVMHWVRQAPGKGLVWVSYINPYNDGTKYNESLKSRVTISSDKSISTAYLQMNSLRAEDTAVYYCARGTYYYGSRVFDYWGQGTLVTVSS VL: DIVMTQAAPSIPVTPGESVSISCRSSKSLLNSNGNTYLYWFLQRPGQSPQLLIYRMSNLASGVPDRFSGSGSGTAFTLRISRVEAEDVGVYYCMQHLEYPFTFGAGTKLELK |  |
|  | ~3 | H0L1 (antibody, V domains shown, also called 4G7 H0L1) VH: EVQLQQSGPELIKPGASVKMSCKASGYTFTSYVMHWVKQKPGQGLEWIGYINPYNDGTKYNEKFKGKATLTSDKSSSTAYMELSSLTSEDSAVYYCARGTYYYGSRVFDYWGQGTTLTVSS VL: DIVMTQSPATLSLSPGERATLSCRSSKSLLNSNGNTYLYWFQQKPGQSPQLLIYRMSNLASGVPDRFSGSGSGTEFTLTISSLEPEDFAVYYCMQHLEYPFTFGAGTKLEIK |  |
|  | ~20 | H1L0 (antibody, V domains shown, also called 4G7 H1L0) VH: EVQLVESGGGLVKPGGSLKLSCAASGYTFTSYVMHWVRQAPGKGLEWIGYINPYNDGTKYNEKFQGRVTISSDKSISTAYMELSSLRSEDTAMYYCARGTYYYGSRVFDYWGQGTLVTVSS VL: DIVMTQAAPSIPVTPGESVSISCRSSKSLLNSNGNTYLYWFLQRPGQSPQLLIYRMSNLASGVPDRFSGSGSGTAFTLRISRVEAEDVGVYYCMQHLEYPFTFGAGTKLELK |  |
|  | ~2 | H0L2 (antibody, V domains shown, also called 4G7 H0L2) VH: EVQLQQSGPELIKPGASVKMSCKASGYTFTSYVMHWVKQKPGQGLEWIGYINPYNDGTKYNEKFKGKATLTSDKSSSTAYMELSSLTSEDSAVYYCARGTYYYGSRVFDYWGQGTTLTVSS VL: DIVMTQSPSSLSASVGDRVTISCRSSKSLLNSNGNTYLYWFQQKPGQSPQLLIYRMSNLASGVPDRFSGSGSGTEFTLTISSLQPEDVAVYYCMQHLEYPFTFGAGTKLEIK |  |
|  | ~3 | H0L3 (antibody, V domains shown, also called 4G7 H0L3) VH: EVQLQQSGPELIKPGASVKMSCKASGYTFTSYVMHWVKQKPGQGLEWIGYINPYNDGTKYNEKFKGKATLTSDKSSSTAYMELSSLTSEDSAVYYCARGTYYYGSRVFDYWGQGTTLTVSS VL: DIVMTQSPATLSVSPGERATISCRSSKSLLNSNGNTYLYWFLQKPGQSPQLLIYRMSNLASGVPDRFSGSGSGTDFTLTISRVEAEDVGVYYCMQHLEYPFTFGAGTKLEIK |  |
|  |  | H3L0 (antibody, V domains shown, also called 4G7 H3L0) VH: EVQLVESGGGLVQPGRSLRLSCAASGYTFTSYVMHWVRQMPGKGLEWMGYINPYNDGTKYNEKFQGRVTITSDKSTSTAYMELSRLRSDDTAVYYCARGTYYYGSRVFDYWGQGTLVTVSS VL: DIVMTQAAPSIPVTPGESVSISCRSSKSLLNSNGNTYLYWFLQRPGQSPQLLIYRMSNLASGVPDRFSGSGSGTAFTLRISRVEAEDVGVYYCMQHLEYPFTFGAGTKLELK | binding result (human CD19 [1]): binds |
|  |  | H2L0 (antibody, V domains shown, also called 4G7 H2L0) VH: QVQLQESGSGLVKPGGSLRLSCAASGYTFTSYVMHWVRQAPGKGLEWMGYINPYNDGTKYNESLKSRVTISSDKSISTAYMELSSLRAEDTAVYYCARGTYYYGSRVFDYWGQGTLVTVSS VL: DIVMTQAAPSIPVTPGESVSISCRSSKSLLNSNGNTYLYWFLQRPGQSPQLLIYRMSNLASGVPDRFSGSGSGTAFTLRISRVEAEDVGVYYCMQHLEYPFTFGAGTKLELK | binding result (human CD19 [1]): binds |
| ~20 |  | H1L3 (antibody, V domains shown, also called 4G7 H1L3) VH: EVQLVESGGGLVKPGGSLKLSCAASGYTFTSYVMHWVRQAPGKGLEWIGYINPYNDGTKYNEKFQGRVTISSDKSISTAYMELSSLRSEDTAMYYCARGTYYYGSRVFDYWGQGTLVTVSS VL: DIVMTQSPATLSVSPGERATISCRSSKSLLNSNGNTYLYWFLQKPGQSPQLLIYRMSNLASGVPDRFSGSGSGTDFTLTISRVEAEDVGVYYCMQHLEYPFTFGAGTKLEIK |  |
|  |  | H4L3 (antibody, V domains shown, also called 4G7 H4L3) VH: EVQLQQSGPEVKKPGTSVKVSCKASGYTFTSYVMHWVRQAPGKGLVWVSYINPYNDGTKYNESLKSRVTISSDKSISTAYLQMNSLRAEDTAVYYCARGTYYYGSRVFDYWGQGTLVTVSS VL: DIVMTQSPATLSVSPGERATISCRSSKSLLNSNGNTYLYWFLQKPGQSPQLLIYRMSNLASGVPDRFSGSGSGTDFTLTISRVEAEDVGVYYCMQHLEYPFTFGAGTKLEIK | binding result (human CD19 [2]): binds |
|  |  | H2L3 (antibody, V domains shown, also called 4G7 H2L3) VH: QVQLQESGSGLVKPGGSLRLSCAASGYTFTSYVMHWVRQAPGKGLEWMGYINPYNDGTKYNESLKSRVTISSDKSISTAYMELSSLRAEDTAVYYCARGTYYYGSRVFDYWGQGTLVTVSS VL: DIVMTQSPATLSVSPGERATISCRSSKSLLNSNGNTYLYWFLQKPGQSPQLLIYRMSNLASGVPDRFSGSGSGTDFTLTISRVEAEDVGVYYCMQHLEYPFTFGAGTKLEIK | binding result (human CD19 [2]): binds |
| ~10 |  | H3L2 (antibody, V domains shown, also called 4G7 H3L2) VH: EVQLVESGGGLVQPGRSLRLSCAASGYTFTSYVMHWVRQMPGKGLEWMGYINPYNDGTKYNEKFQGRVTITSDKSTSTAYMELSRLRSDDTAVYYCARGTYYYGSRVFDYWGQGTLVTVSS VL: DIVMTQSPSSLSASVGDRVTISCRSSKSLLNSNGNTYLYWFQQKPGQSPQLLIYRMSNLASGVPDRFSGSGSGTEFTLTISSLQPEDVAVYYCMQHLEYPFTFGAGTKLEIK |  |
| ~20 |  | H3L3 (antibody, V domains shown, also called 4G7 H3L3) VH: EVQLVESGGGLVQPGRSLRLSCAASGYTFTSYVMHWVRQMPGKGLEWMGYINPYNDGTKYNEKFQGRVTITSDKSTSTAYMELSRLRSDDTAVYYCARGTYYYGSRVFDYWGQGTLVTVSS VL: DIVMTQSPATLSVSPGERATISCRSSKSLLNSNGNTYLYWFLQKPGQSPQLLIYRMSNLASGVPDRFSGSGSGTDFTLTISRVEAEDVGVYYCMQHLEYPFTFGAGTKLEIK |  |
|  |  | H3L1 (antibody, V domains shown, also called 4G7 H3L1) VH: EVQLVESGGGLVQPGRSLRLSCAASGYTFTSYVMHWVRQMPGKGLEWMGYINPYNDGTKYNEKFQGRVTITSDKSTSTAYMELSRLRSDDTAVYYCARGTYYYGSRVFDYWGQGTLVTVSS VL: DIVMTQSPATLSLSPGERATLSCRSSKSLLNSNGNTYLYWFQQKPGQSPQLLIYRMSNLASGVPDRFSGSGSGTEFTLTISSLEPEDFAVYYCMQHLEYPFTFGAGTKLEIK | binding result (human CD19 [1]): binds |
|  |  | 4G7 IgG1 (chimeric: murine 4G7 H0/L0 variable regions, human IgG1 and kappa constant regions) (antibody, also called 4G7 IgG1 antibody; WT IgG1 antibody; copies: 2 + 2) heavy: not shown light: DIVMTQAAPSIPVTPGESVSISCRSSKSLLNSNGNTYLYWFLQRPGQSPQLLIYRMSNLASGVPDRFSGSGSGTAFTLRISRVEAEDVGVYYCMQHLEYPFTFGAGTKLELKRTVAAPSVFIFPPSDEQLKSGTASVVCLLNNFYPREAKVQWKVDNALQSGNSQESVTEQDSKDSTYSLSSTLTLSKADYEKHKVYACEVTHQGLSSPVTKSFNRGEC | Kd [3]: ~240 nM; binding result (FcγRIIa - H131): binds; binding result (FcγRIIa - R131): binds |
